# US20170129921A1
# Biological target: Human C5a receptor 2 (human) (UniProt Q9P296)
# Experiment: 125I-C5a displacement, SPA on Flp-In CHO-C5a2 membranes
# Chain of Human C5a receptor 2 (human) (Q9P296 whole entry): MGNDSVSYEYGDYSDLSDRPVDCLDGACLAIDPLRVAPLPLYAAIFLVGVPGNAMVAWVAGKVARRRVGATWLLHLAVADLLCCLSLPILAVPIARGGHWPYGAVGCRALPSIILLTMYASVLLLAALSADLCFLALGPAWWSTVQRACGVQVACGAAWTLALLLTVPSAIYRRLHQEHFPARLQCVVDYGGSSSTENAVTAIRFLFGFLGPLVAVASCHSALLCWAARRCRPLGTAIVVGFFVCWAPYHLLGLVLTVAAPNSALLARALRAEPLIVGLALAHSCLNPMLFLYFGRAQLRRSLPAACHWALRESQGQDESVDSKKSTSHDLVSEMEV
# Chain of Human isolated C3a, P01024 672-748 (ligand; other documents disagree on this pair) (P01024 672-748): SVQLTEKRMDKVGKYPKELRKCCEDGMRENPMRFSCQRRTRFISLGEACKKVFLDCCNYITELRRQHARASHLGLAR
# Chain of Human isolated C3a-des Arg, P01024 672-747 (ligand; other documents disagree on this pair) (P01024 672-747 limits assumed): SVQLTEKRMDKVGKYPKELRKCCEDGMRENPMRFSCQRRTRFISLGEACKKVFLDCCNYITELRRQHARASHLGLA
row,Ki [nM],Substance
1,> 1000,"Human isolated C3a, P01024 672-748 (ligand; other documents disagree on this pair)"
2,> 1000,"Human isolated C3a-des Arg, P01024 672-747 (ligand; other documents disagree on this pair)"
